Reference: doi:10.1101/2025.07.04.663185 (bioRxiv, 2025)

B1: Wee1 (enzyme)
chain: MSSSSNTSSHRSYGLRRSQRSMNLNRATLLAPPTPSSLYDANNSTSSTSSQKPNTSFTSLFGPRKQTTSSPSFSHAAPLHPLSPPSFTHSQPQIQAQPVPRRPSLFDRPNLVSRSSSRLGDSPSLSPVAQVANPIHHTAPSPSDVRAFPIHKNASTGVKRSFFSSSMSNGAMSPPSHSPSPFLQSSQHIPPSTPAQKLRKKNNFDSFRISNSHISPFASGSFSPFATSSPNFLSTSTPAPPNSNNANPSTLFSSIPSSRHTTSNHFPSNSAQSSLFSPTARPLTARKLGFASSQTKSAVSNNHSRNSSKDASFMMKSFIPSNRSHPQTQQNESSLFSDNSMVNSSSNSFSLFPNATLPNPPSSELLTTPFQQIKPPSQVFMSTGLLSKQHRPRKNINFTPLPPSTPSKPSTFVRPHSSSTDSPPSPSTPSNTQTDSYFIQRENTPTNHNSIPTIQLEKSSMDFLRFDPPPSAVKTSHNYGLPFLSNQRCPATPTRNPFAFENTVSIHMDGRQPSPIKSRNNNQMSFAMEEEADVSQPSSSSFTLSFPSALTSSKVSSSTSHLLTRFRNVTLLGSGEFSEVFQVEDPVEKTLKYAVKKLKVKFSGPKERNRLLQEVSIQRALKGHDHIVELMDSWEHGGFLYMQVELCENGSLDRFLEEQGQLSRLDEFRVWKILVEVALGLQFIHHKNYVHLDLKPANVMITFEGTLKIGDFGMASVWPVPRGMEREGDCEYIAPEVLANHLYDKPADIFSLGITVFEAAANIVLPDNGQSWQKLRSGDLSDAPRLSSTDNGSSLTSSSRETPANSIIGQGGLDRVVEWMLSPEPRNRPTIDQILATDEVCWVEMRRKAGAIIYEGIHGSSSNPQGDQMMEDWQVNV
B2: Cdc25 (enzyme)
chain: MDSPLSSLSFTNTLSGKRNVLRPAARELKLMSDRNANQELDFFFPKSKHIASTLVDPFGKTCSTASPASSLAADMSMNMHIDESPALPTPRRTLFRSLSCTVETPLANKTIVSPLPESPSNDALTESYFFRQPASKYSITQDSPRVSSTIAYSFKPKASIALNTTKSEATRSSLSSSSFDSYLRPNVSRSRSSGNAPPFLRSRSSSSYSINKKKGTSGGQATRHLTYALSRTCSQSSNTTSLLESCLTDDTDDFELMSDHEDTFTMGKVADLPESSVELVEDAASIQRPNSDFGACNDNSLDDLFQASPIKPIDMLPKINKDIAFPSLKVRSPSPMAFAMQEDAEYDEQDTPVLRRTQSMFLNSTRLGLFKSQDLVCVTPKQSTKESERFISSHVEDLSLPCFAVKEDSLKRITQETLLGLLDGKFKDIFDKCIIIDCRFEYEYLGGHISTAVNLNTKQAIVDAFLSKPLTHRVALVFHCEHSAHRAPHLALHFRNTDRRMNSHRYPFLYYPEVYILHGGYKSFYENHKNRCDPINYVPMNDASHVMTCTKAMNNFKRNATFMRTKSYTFGQSVLASPDVNDSPTAMHSLSTLRRF

Biological target: Cdc2-GFP (S. pombe, UniProt P04551 1-297)
Sequence (P04551 whole entry): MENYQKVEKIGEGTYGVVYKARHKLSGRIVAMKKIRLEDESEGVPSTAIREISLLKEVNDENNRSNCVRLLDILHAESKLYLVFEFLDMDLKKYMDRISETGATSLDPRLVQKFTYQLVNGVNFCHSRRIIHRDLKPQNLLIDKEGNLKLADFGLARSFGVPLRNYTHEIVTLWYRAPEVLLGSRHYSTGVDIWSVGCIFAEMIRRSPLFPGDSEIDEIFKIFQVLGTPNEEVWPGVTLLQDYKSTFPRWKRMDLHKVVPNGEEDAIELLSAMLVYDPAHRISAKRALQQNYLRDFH
Experiment: affinity purification with mass spectrometry

Row | Binder | fold increase in association with Cdc2, suc1^ts versus suc1+ cells
1 | B1 | 2.5 fold
2 | B2 | 3 fold
